In paper PMC11865472 one finds Kd data, which are given here for 6 molecules.

In assay [1] the target is T1, TGF-β2 (growth factor domain, wild type) (human).
T1 sequence (P61812 303-414, looked up): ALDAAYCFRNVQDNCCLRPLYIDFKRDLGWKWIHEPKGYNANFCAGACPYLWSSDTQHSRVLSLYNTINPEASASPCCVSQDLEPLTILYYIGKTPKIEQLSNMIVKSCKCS
In words: SPR; TGF-β2 immobilised on the chip surface; ratBGO, zfBGO, ratBGO-zfBL or ratBGO-Y248A injected, 2-fold dilution series 500 - 31.3 nM; three consecutive repeats.

Assay [2] has as its target T2, rat betaglycan ZP-C domain (BG_(ZP-C)), mammalian-expressed.
T2 chain: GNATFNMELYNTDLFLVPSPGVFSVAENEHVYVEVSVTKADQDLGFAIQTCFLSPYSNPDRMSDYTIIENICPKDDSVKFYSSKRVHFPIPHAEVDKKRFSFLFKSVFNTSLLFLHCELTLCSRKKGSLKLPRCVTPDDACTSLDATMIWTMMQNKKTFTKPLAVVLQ
In words: SPR. The conditions noted are these: chain shown with the change; analyte: BGZP-C; parent: est. 95; read off a plot.

The target of assay [3] is T3, inhibin A (InhA), mature heterodimer, unlabelled, P05111;P08476.
T3 chain 1: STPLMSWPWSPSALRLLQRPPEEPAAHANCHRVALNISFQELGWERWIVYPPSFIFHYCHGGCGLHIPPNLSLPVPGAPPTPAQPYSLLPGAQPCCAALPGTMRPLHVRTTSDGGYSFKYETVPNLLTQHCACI
T3 chain 2: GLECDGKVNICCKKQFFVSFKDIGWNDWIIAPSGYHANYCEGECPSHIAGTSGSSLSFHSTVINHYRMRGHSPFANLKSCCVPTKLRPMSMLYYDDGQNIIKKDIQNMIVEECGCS
Nature of the assay: SPR. The conditions noted are these: chain shown with the change.

For assay [4], the target named is TGF-β2 (Q57A, K60A, L64A) (human). Nature of the assay: SPR; BIAcore T200; TGF-β2 WT or TGF-β2 mutants amine-coupled (EDC-NHS) to a CM4 chip, max 400 RU; zfBGO WT or BGZP-C WT injected, 2-fold dilution series 250 - 15.6 nM; 10 mM CHES, 150 mM NaCl, 3 mM EDTA, 0.01% P20, pH 8.0; 100 µl/min; 1:1 kinetic model with drift; three consecutive repeats.
The target of assay [5] is TGF-β2 (Y50A, L51A) (human). Described as above.
Assay [6] deals with T1, TGF-β2 (growth factor domain, wild type) (human). Described as above.
Setting [7] is: surface: InhA, parent: est. 1100 nM, read off a plot.

B1: rat betaglycan orphan domain (ratBGO), wild type (domain or fragment)
chain: CELSPINASHPVQALMESFTVLSGCASRGTTGLPREVHVLNLRSTDQGPGQRQREVTLHLNPIASVHTHHKPIVFLLNSPQPLVWHLKTERLAAGVPRLFLVSEGSVVQFPSGNFSLTAETEERNFPQENEHLLRWAQKEYGAVTSFTELKIARNIYIKVGEDQVFPPTCNIGKNFLSLNYLAEYLQPKAAEGCVLPSQPHEKEVHIIELITPSSNPYSAFQVDIIVDIRPAQEDPEVVKNLVLILKCKKSVNWVIKSFDVKGNLKVIAPNSIGFGKESERSMTMTKLVRDDIPSTQENLMKWALDNGYRPVTSYTMAPVANRFHLRLEN
In assay [1], B1 yielded a Kd of 72 nM.

B2: ratBGO-Y248A (domain or fragment)
chain: CELSPINASHPVQALMESFTVLSGCASRGTTGLPREVHVLNLRSTDQGPGQRQREVTLHLNPIASVHTHHKPIVFLLNSPQPLVWHLKTERLAAGVPRLFLVSEGSVVQFPSGNFSLTAETEERNFPQENEHLLRWAQKEYGAVTSFTELKIARNIYIKVGEDQVFPPTCNIGKNFLSLNYLAEYLQPKAAEGCVLPSQPHEKEVHIIELITPSSNPASAFQVDIIVDIRPAQEDPEVVKNLVLILKCKKSVNWVIKSFDVKGNLKVIAPNSIGFGKESERSMTMTKLVRDDIPSTQENLMKWALDNGYRPVTSYTMAPVANRFHLRLEN
In the case of B2, the Kd in assay [1] came out at 102 nM.

B3: TGF-β2 homodimer (growth factor domain), unlabelled Y50A; L51A (protein)
chain: ALDAAYCFRNVQDNCCLRPLYIDFKRDLGWKWIHEPKGYNANFCAGACPAAWSSDTQHSRVLSLYNTINPEASASPCCVSQDLEPLTILYYIGKTPKIEQLSNMIVKSCKCS
Consider B3, for which, in assay [2], the Kd worked out at 110 nM.

B4: rat betaglycan ZP-C domain (BG_(ZP-C)), mammalian-expressed N82Y (protein)
chain: GNATFNMELYNTDLFLVPSPGVFSVAENEHVYVEVSVTKADQDLGFAIQTCFLSPYSNPDRMSDYTIIEYICPKDDSVKFYSSKRVHFPIPHAEVDKKRFSFLFKSVFNTSLLFLHCELTLCSRKKGSLKLPRCVTPDDACTSLDATMIWTMMQNKKTFTKPLAVVLQ
On to B4, for which the Kd in assay [3] (setting [7]) was found to be 850 nM.

B5: rat betaglycan ZP-C domain (BG_(ZP-C)), mammalian-expressed A158E (protein)
chain: GNATFNMELYNTDLFLVPSPGVFSVAENEHVYVEVSVTKADQDLGFAIQTCFLSPYSNPDRMSDYTIIENICPKDDSVKFYSSKRVHFPIPHAEVDKKRFSFLFKSVFNTSLLFLHCELTLCSRKKGSLKLPRCVTPDDACTSLDETMIWTMMQNKKTFTKPLAVVLQ
Consider B5, for which the dissociation constant Kd worked out at 1810 nM in assay [3] (500 - 15.6 nM, 2-fold dilution series) and 1800 nM in assay [3] (setting [7]).

B6: rat betaglycan ZP-C domain (BGZP-C), wild type (domain or fragment)
chain: GNATFNMELYNTDLFLVPSPGVFSVAENEHVYVEVSVTKADQDLGFAIQTCFLSPYSNPDRMSDYTIIENICPKDDSVKFYSSKRVHFPIPHAEVDKKRFSFLFKSVFNTSLLFLHCELTLCSRKKGSLKLPRCVTPDDACTSLDATMIWTMMQNKKTFTKPLAVVLQ
Turning to B6, the results for the Kd in assay [4], in assay [5] and in assay [6] were 99 nM, 113 nM and 95 nM, respectively.
